Data on five molecules can be found in patent US20220363752A1 (VERSEAU THERAPEUTICS, published 2022).

For test [1], the target named is T1, His-tagged cynomolgus monkey LRRC25 extracellular domain protein, cyno LRRC25-His (cynomolgus monkey).
T1 construct: The entry holds the extracellular domain, a GSG linker and the His tag
Description: ELISA, plate-immobilized cyno LRRC25-His. How it is done: (§1) A typical ELISA was performed by coating overnight in PBS, pH 7.4, at 4° C. in high binding microtiter wells with 1 ug/mL/100 ul per well of human LRRC25-His or cyno LRRC25-His. An anti-human LRRC25 antibody (2A3, LS Bio, LS-C174039-100) and anti-HIS-HRP (Miltenyi Biotec; 130-092-783) served as coating controls for the human and cyno LRRC25 proteins, respectively. […] Anti-LRRC25 antibodies were added (100 ul per well) at 500 nM and serially diluted 3-fold in assay buffer (1% skimmed milk in PBS, pH 7.4). The plate was incubated with gentle agitation for 1 h at room temperature. The plate was washed 3× and HRP-conjugated secondary antibody in assay buffer added [100 ul per well; goat anti-human IgG (Jackson Immunoresearch, cat #715-035-150)], and the plate was incubated as before. Antibody bound to plate-immobilized LRRC25(ECD)-HIS was determined at A450 nm using HRP substrate (3,3′,5,5′-tetramethylbenzidine (TMB); eBioscience; 00-4201-56); 100 μl/well).
For orientation: An ELISA detects its analyte on a solid surface through an enzyme-linked reagent.

The target in test [2] is T2, LRRC25(96-115) biotin peptide (human, not fully specified; N-terminal acetyl; C-terminal GGK-Biotin; native Cys changed to Ser).
T2 construct: also called Biotin LRRC25 (96-115) peptide
T2 peptide: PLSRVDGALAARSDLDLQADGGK
Description: ELISA, 20 nM antibody, biotinylated antigen on streptavidin plate. The method, then: (§2) To establish if functional chimera anti-LRRC25 antibodies recognize particular regions of LRRC25, ELISA experiments were performed using 10 plate-immobilized 16- to 20-mer overlapping LRRC25(ECD) biotin peptides (Table 7). Biotinylated human LRRC25-His served as a positive control. A typical ELISA was performed by coating overnight at 4° C., 3 ug/mL/25 ul per well of streptavidin (Jackson Immunoresearch, Cat. #016-030-084) in PBS in half-area high binding microtiter wells (Corning Cat. #3690). […] Biotin peptides or biotinylated human LRRC25-His protein were added in duplicate (2 ug/mL/25 ul per well) in assay buffer (blocking buffer containing 0.05% tween 20) and the plate incubated for 45 min at 37° C. The plate was washed as before, 20 nM anti-LRRC25 antibodies in assay buffer added in duplicate into appropriate wells, and the plate incubated as before. The plate was washed and HRP-conjugated secondary antibody in assay buffer added [25 ul per well; goat anti-human IgG (Jackson Immunoresearch, Cat. #715-035-150)], and incubated as before. Antibody bound to plate-immobilized peptide(s) or protein was determined at A450 nm using HRP substrate (3,3′,5,5′-tetramethylbenzidine (TMB); eBioscience; Cat. #00-4201-56); 100 μl/well).

The target of test [3] is T3, biotinylated human LRRC25-His protein (human, UniProt Q8N386 21-165, biotinylated (sites not given)).
T3 construct: also called Biotin LRRC25-His; biotinylated LRRC25 protein
T3 sequence (Q8N386 other isoform, or with tags, fused parts or gaps): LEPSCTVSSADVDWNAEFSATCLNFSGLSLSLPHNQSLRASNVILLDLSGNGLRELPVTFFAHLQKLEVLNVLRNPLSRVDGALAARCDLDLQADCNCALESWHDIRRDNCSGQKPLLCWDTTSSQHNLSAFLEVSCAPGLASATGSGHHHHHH
The description is as above. How it is done:
as §2

Test [4] deals with T4, LRRC25(141-159) biotin peptide (human, not fully specified; N-terminal acetyl; C-terminal GGK-Biotin; native Cys changed to Ser).
T4 peptide: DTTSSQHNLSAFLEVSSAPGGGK
Description: peptide ELISA. The method, then:
as §2

Test [5] concerns the target T5, LRRC25(21-40) biotin peptide (human, not fully specified; N-terminal NH2; C-terminal GGK-Biotin; native Cys changed to Ser).
T5 peptide: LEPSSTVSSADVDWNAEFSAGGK
Description: peptide ELISA. How it is done: as §2

Test [6] concerns the target T6, LRRC25(51-69) biotin peptide (human, not fully specified; N-terminal acetyl; C-terminal GGK-Biotin).
T6 peptide: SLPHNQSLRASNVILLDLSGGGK
As to the kind of experiment: peptide ELISA. How it is done: as §2

The target of test [7] is T7, LRRC25(150-165) biotin peptide (human).
T7 peptide: Ac-SAFLEVSSAPGLASATGG-{Biotin′}
Description: peptide ELISA. The method, then: as §2

Test [8] addresses T8, LRRC25(36-55) biotin peptide (human, not fully specified; N-terminal NH2; C-terminal GGK-Biotin; native Cys changed to Ser).
T8 peptide: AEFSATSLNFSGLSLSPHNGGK
As to the kind of experiment: peptide ELISA. The method, then:
as §2

The target in test [9] is T9, LRRC25(111-130) biotin peptide (human, not fully specified; N-terminal acetyl; C-terminal GGK-Biotin; native Cys changed to Ser).
T9 peptide: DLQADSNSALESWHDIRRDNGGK
As to the kind of experiment: peptide ELISA. How it is done: as §2

Test [10] deals with T10, LRRC25(126-145) biotin peptide (human, not fully specified; N-terminal acetyl; C-terminal GGK-Biotin; native Cys changed to Ser).
T10 peptide: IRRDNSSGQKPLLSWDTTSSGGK
As to the kind of experiment: peptide ELISA. How it is done:
as §2

In test [11] the target is T11, LRRC25(81-100) biotin peptide (human, not fully specified; N-terminal acetyl; C-terminal GGK-Biotin).
T11 peptide: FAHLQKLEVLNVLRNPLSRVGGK
As to the kind of experiment: peptide ELISA. How it is done: as §2

The target of test [12] is T12, LRRC25(66-85) biotin peptide (human, not fully specified; N-terminal acetyl; C-terminal GGK-Biotin).
T12 peptide: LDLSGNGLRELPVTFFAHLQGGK
Description: peptide ELISA. The method, then:
as §2

In test [13] the target is T13, His-tagged human LRRC25 extracellular domain protein, human LRRC25-His (human, UniProt Q8N386 21-165).
T13 construct: The entry holds the extracellular domain, a GSG linker and the His tag; also called LRRC25(ECD)-HIS
T13 sequence (Q8N386 other isoform, or with tags, fused parts or gaps): as the sequence (Q8N386 other isoform, or with tags, fused parts or gaps) above
Description: ELISA, plate-immobilized antigen. How it is done:
To establish the relative binding strengths of anti-LRRC25 antibodies against human LRRC25, and their cross-reactivity with cynomolgus monkey LRRC25, antibody binding curve analyses were performed and EC50 values against plate-immobilized recombinant human and cyno LRRC25 proteins were determined.
as §1

In test [14] the target is T2, LRRC25(96-115) biotin peptide. As to the kind of experiment: peptide ELISA. The method, then:
as §2

Changes are numbered by the printed parent chain. Primed or numbered codes have the meaning given here. Biotin′ = not defined here

T1 sequence (chain, as listed by the source limits assumed): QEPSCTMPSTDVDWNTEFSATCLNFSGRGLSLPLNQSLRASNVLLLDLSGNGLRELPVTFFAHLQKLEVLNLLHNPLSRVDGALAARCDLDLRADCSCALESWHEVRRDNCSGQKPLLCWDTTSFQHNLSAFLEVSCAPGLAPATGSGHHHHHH

B1: anti-LRRC25 chimeric antibody 1H04 (antibody, human IgG4, V domains shown)
VH: EVQLVESGGGLVKPGGSLKLSCAASGFTFSNSAMSWVRQTPEKRLEWVASISRGGKTYYPDSVKGRFTISRDNARNILYLQMSSLRSEDTAMYYCARGQELRLFAYWGQGTLVTVSA
VL: DIVMTQDAFSNPVTLGTSASISCRSSKSLLHSNGITYLYWYLQKPGQSPQLLIYQMSNLASGVPDRFSSSGSGTDFTLRISRVEAEDVGVYYCAQNLELPFTFGSGTKLEIKR
As a reminder, the EC50 is the concentration that produces a half-maximal response. For B1, the binding result is “no binding (tested: 500 nM)” in test [1]; “no binding (tested: 20 nM)” in test [4]; “no binding (tested: 20 nM)” in test [5]; “no binding (tested: 20 nM)” in test [6]; “no binding (tested: 20 nM)” in test [7]; “no binding (tested: 20 nM)” in test [8]. Moreover, the binding result in test [9], in test [10], in [11] and in test [12] was “no binding (tested: 20 nM)” throughout. Further, the “absorbance (A450)” value in test [2] amounted to 2.58 A450; in test [3] it was 1.24 A450. Also, the midpoint of the response in test [13], the EC50, lay at 0.44 nM.

B2: anti-LRRC25 chimeric antibody 1A03 (antibody, human IgG4, V domains shown)
VH: B1 VH with N31S, M34V, K56N
VL: B1 VL with D7A, F101P, S105G
Consider B2, for which the binding result was “no binding (tested: 500 nM)” in test [1]; “no binding (tested: 20 nM)” in test [4]; “no binding (tested: 20 nM)” in test [5]; “no binding (tested: 20 nM)” in test [6]; “no binding (tested: 20 nM)” in test [7]; “no binding (tested: 20 nM)” in [8]. Further, the binding result in test [9], in [10], in test [11] and in [12] was “no binding (tested: 20 nM)” each time. The “absorbance (A450)” value stood at 0.478 A450 in test [2] and 0.37 A450 in test [3]. In [13], this molecule came in with an EC50 of 6.4 nM.

B3: anti-LRRC25 chimeric antibody 1H09 (antibody, human IgG4, V domains shown)
VH: DVQLVESGGGLVKPGGSLKLSCAASGFTFSSYAMSWVRQTPEKRLEWVASISRGGNTYYPDSVKGRFTISRDNARNILYLQMSSLRSEDTAMYYCARGNYGNSPFAYWGQGALVTVSA
VL: DVVMTQTPASLAVSLGQRATISCRASESVDSYGNSFMHWYQQKPGQPPKLLIYLASNLESGVPARFSGSGSRTDFTLTIDPVEADDAATYYCQQNNEDPFTFGSGTKLEIKR
B3: the binding result in test [1] is listed as “no binding (tested: 500 nM)”; in [4] it was “no binding (tested: 20 nM)”; in test [5] it was “no binding (tested: 20 nM)”; in test [6], “no binding (tested: 20 nM)”; in test [7] it was “no binding (tested: 20 nM)”; in test [8], “no binding (tested: 20 nM)”. The binding result in test [9], in test [10], in test [11] and in [12] was “no binding (tested: 20 nM)” each time. Besides, the results for the “absorbance (A450)” value in [2] and in test [3] were 0.631 A450 and 0.564 A450, respectively. The molecule also displayed an EC50 in test [13] of 1.5 nM.

B4: anti-LRRC25 chimeric antibody 1F01 (antibody, human IgG4, V domains shown)
VH: B3 VH with D1E, Q3K, V5E, S31N, M92T, Y94F, A96T, R97K, N102S, A112T
VL: DIQMTQSPASLSASVGETVTITCRASENIYSYLAWYQQKQGKSPQLLVYNAKTLAEGVPSRFSGSGSGTQFSLKINSLQPEDFGSYYCQHHYGTPFTFGSGTKLEIKR
notes: also called ATCC PTA-126025
As to B4, the binding result in test [1] was “no binding (tested: 500 nM)”; in test [4] it was “no binding (tested: 20 nM)”; in test [5] it was “no binding (tested: 20 nM)”; in [6] it was “no binding (tested: 20 nM)”; in [7], “no binding (tested: 20 nM)”; in test [8], “no binding (tested: 20 nM)”. Moreover, the binding result in [9], in test [10], in test [11] and in test [12] was “no binding (tested: 20 nM)” in each case. The “absorbance (A450)” value worked out at 0.782 A450 in [2] and 0.507 A450 in test [3]. The EC50 in test [13] amounted to 8.3 nM.

B5: anti-LRRC25 chimeric antibody 2G02 (antibody, human IgG4, V domains shown)
VH: QVTLKESGPGILQPSQTLSLTCSFSGFSLSTSGMGVSWIRQPSGKGLEWLAHIYWDDDKRYNPSLKSRLTISKDTSSNQVFLKITSVDTADTATYYCARRHRDYDSRGHWYFGVWGAGTTVTVSS
VL: DVVMTQTPKSMSMSVGERVTLSCKASENVGTYVSWYQQKPEQSPKLLIYGASNRYTGVPDRFTGSGSATDFTLTISSVQAEDLADYHCGQSYNYPFTFGGGTKLEIKR
Turning to B5, the “absorbance (A450)” value in test [2] was found to be 0.049 A450; in test [3], 2.6 A450. Further, the binding result in test [4], in test [5], in [14], in test [6], in test [7] and in test [8] was “no binding (tested: 20 nM)” throughout. The binding result in test [9], in test [10], in test [11] and in test [12] was “no binding (tested: 20 nM)” each time.
